Experimental data reported in US12226476B2, “Helper epitope peptide and application thereof” (CHINA PHARMACEUTICAL UNIVERSITY, priority 2018, dated 2025).
Non-standard residues stand in square brackets, D forms with d. Phe(4-NO2) = N[C@@H](Cc1ccc([N+](=O)[O-])cc1)C(=O)O

Tested on: EPCAM
Assay: Antibody titer in serum of immunized mice, indirect ELISA
Assay type: in vivo
Conditions: FIG. 16; compared with the EPCAM group and the EPCAM-PADRE group; mice immunized subcutaneously, 50 μg, Freund's adjuvant
Protocol: The protocol is as follows: • (1) The helper epitope was connected to individual antigens or antigen epitope with the linking peptide to construct multiple fusion antigens. The sequence of the linking peptide is GPSL (i.e. Gly-Pro-Ser-Leu) (SEQ ID NO:51). • (2) The fusion antigens from (1) were emulsified adequately with complete Freund's adjuvant of the same volume. Then to immunize mice via subcutaneous injection with the emulsion at the dose of 50 μg per mouse. The strains of experimental mice including C57, Fvb and Balb/C. After 7 days and 14 days of first immunization, the fusion antigens from (1) were emulsified adequately with incomplete Freund's adjuvant of the same volume and then to immunize mice via subcutaneous injection with the emulsion at the dose of 50 μg per mouse. • (3) There are two detection methods. One is to obtain the orbital blood of immunized mice on 7, 14, 21 and 28 day respectively, centrifuge the whole blood to get the serum. Then the antibody titer is detected by indirect ELISA. The other one is: one week after the last immunization, the mice are killed to get the spleen. PBMC (peripheral blood mononuclear cells) are isolated, and the CTL-mediated cytotoxicity is detected by LDH (lactate dehydrogenase) kit.
The first step was to construct the fusion antigen. According to each fusion antigen, C57BL/6 female mice aged 6-8 weeks were randomly divided into three groups with 6 mice in each group. They were PBS group, existing antigen or antigen epitope group, antigen-PADRE or antigen epitope-PADRE group, and vaccine group containing fusion antigen.
In the second step, using fusion antigen to immunize mice via subcutaneous injection for 3 times […] 50 μg each time. Mixed with Freund's adjuvant of the same volume.
Method 1: The whole blood was collected every week after immunization and centrifugated at 6000 rpm for 20 min to obtain the serum for a total of 4 weeks. Antibody titers were detected by indirect ELISA as follows: • (1) Coating: the existing antigen or antigen epitope was diluted to 5 μg/mL with coating solution. Then the 100 μL mixed solution was added into each well of enzyme immunoassay test strip, and incubated in 37° C. incubator for 2 h; • (2) use PBST to wash each well 5 times for 5 min each time; • (3) Sealing: 150 μL locking solution was added to each well of the enzyme immunoassay test strip and incubated at 4° C. overnight. • (4) Repeat step (2); • (5) Incubation first antibody: the collected mouse serum was diluted with antibody diluent. Then the 100 μL mixed solution was added into each well, and incubated at 37° C. for 2 h; • (6) Repeat step (2); • (7) Incubating secondary antibodies: HRP-GOAT Anti-mouse IgG was diluted with antibody dilution in the ratio of 1:10000, and 100 μL dilution was added to each well, and incubated at 37° C. for 45 min; • (8) Repeat step (2); • (9) Substrate addition: 100 μL TMB substrate reaction solution was added into each well of enzyme label, and incubated at 37° C. for 15 min in darkness. • (10) Termination reaction: 50 μL 2M H2SO4 was added into each well to terminate the reaction. • (11) Color development: the absorbance value of the sample in each well was detected at 450/630 nm.

B1: EPCAM-3 ? 11pPhe-PADRE: fusion antigen: EPCAM linked via GPSL to helper epitope SEQ ID NO: 17 (protein)
chain: QEECVCENYKLAVNCFVNNNRQCQCTSVGAQNTVICSKLAAKCLVMKAEMNGSKLGRRAKPEGALQNNDGLYDPDCDESGLFKAKQCNGTSMCWCVNTAGVRRTDKDTEITCSERVRTYWIIIELKHKAREKPYDSKSLRTALQKEITTRYQLDPKFITSILYENNVITIDLVQNSSQKTQNDVDIADVAYYFEKDVKGESLFHSKKMDLTVNGEQLDLDPGQTLIYYVDEKAPEFSMQGLKGPSLAK[Phe(4-NO2)]VAAWTLK[Phe(4-NO2)]AA
B1 was tested. Which antibody titers did it give?
Its antibody titers is “increased significantly”.
